The values below come from patent publication US20040248196A1 (COMMONWEALTH SCIENTIFIC AND INDUSTRIAL RESEARCH ORGANISATION, published 2004).

Test [1] deals with T1, M 2-EGFR (wild-type N-terminus FLAG-tagged EGF receptor) (human, UniProt P00533 25-1210).
T1 construct: whole, on cells; Stably expressed on BaF/3 cells; also called wt EGFR; wild type EGFR; not shown: N-terminal FLAG tag
Description: Scatchard plot (B/F specific against Bound) of 125I-EGF binding to BaF/3 cells expressing wt EGFR, cold ligand titration, fitted with Radlig; first (high affinity) of two sites.

Test [2] has as its target T2, M 2-EGFR E 21A (human, UniProt P00533 25-1210).
T2 construct: whole, on cells; Transiently expressed in 293 cells and stably expressed in BaF/3 cells; also called Glu 21Ala; not shown: N-terminal FLAG tag
As to the kind of experiment: Scatchard plot (B/F specific against Bound) of 125I-EGF binding to BaF/3 cells expressing E21A EGFR, cold ligand titration, fitted with Radlig; first (high affinity) of two sites. The procedure:
This was determined in total cell lysates by sequential immunoblotting with anti-phosphotyrosine (top) or anti-EGFR (bottom) antibodies. […] Cross-linking of the EGFR via the extracellular portion was performed at 37° C. to maximize dimer yield. Samples were analyzed by SDS-PAGE on 3-8% gradient gels and immunoblotting with anti-EGFR antibodies.
The isolation and characterisation of stably transfected cell lines expressing wild-type and mutant EGFRs was performed using the II3-dependent murine hemopoietic lineage BaF/3 (Walker et al, 1998, Growth Factors 16, 53-67). Expression vectors containing the appropriate EGFR constructs were transfected individually by electroporation using a Gene Pulser (BioRad) according to manufacturer's instructions. Neomycin-resistant pools were generated by selection in G 418, and cloned by limiting dilution to obtain stable cell lines.

The target in test [3] is T2, M 2-EGFR E 21A. Description: Scatchard plot (B/F specific against Bound) of 125I-EGF binding to BaF/3 cells expressing E21A EGFR, cold ligand titration, fitted with Radlig; second (low affinity) of two sites.
The target in test [4] is T1, M 2-EGFR (wild-type N-terminus …). As to the kind of experiment: Scatchard plot (B/F specific against Bound) of 125I-EGF binding to BaF/3 cells expressing wt EGFR, cold ligand titration, fitted with Radlig; second (low affinity) of two sites.

By Kd is commonly meant the constant that tells how readily two partners part at equilibrium. Low readings indicate a tighter complex, high ones a looser complex.

B1: iodinated murine EGF (ligand, UniProt P01132 977-1029, looked up)
chain: NSYPGCPSSYDGYCLNGGVCMHIESLDSYTCNCVIGYSGDRCQTRDLRWWELR
modifications: 125I-iodinated (site not stated)
notes: mature; Unlabelled EGF was used for the cold titration
For the molecule B1, the dissociation constant (Kd) was 0.039 nM in test [1], 0.045 nM in test [2], 1.1 nM in test [3] and 1.1 nM in test [4].
